Values belong to the substance of their own block, whether it stands above or below them. Non-standard residues stand in square brackets, D forms with d. *: point of attachment. Cyclohexanecarbonyl = O=C(C1CCCCC1)*; Ala(cPr) = N[C@@H](CC1CC1)C(=O)O; hArg = N=C(N)NCCCC[C@H](N)C(=O)O; 4Pal = N[C@@H](Cc1ccncc1)C(=O)O; Aad = N[C@@H](CCCC(=O)O)C(=O)O; Cha = N[C@@H](CC1CCCCC1)C(=O)O; Gly(cPr) = N[C@H](C(=O)O)C1CC1; Isonicotinoyl = O=C(c1ccncc1)*; dIva = CC[C@@](C)(N)C(=O)O; Isobutyryl = CC(C)C(=O)*; dNMeA = CN[C@H](C)C(=O)O; Dab = NCC[C@H](N)C(=O)O; Abu = CC[C@H](N)C(=O)O; Aib = CC(C)(N)C(=O)O; Bz = O=C(c1ccccc1)*
Tests used:
[1] = biological target: T1, human Y2 receptor (Homo sapiens, UniProt P49146); test: Receptor Binding Assay (RBA) for Human Y2, [125I]-PYY displacement on hY2R/CHO membrane fraction; details: IC50 of test compound/IC50 of PYY(3-36) (PYY(3-36) taken as 1)
T1 construct: expressed in transfected cells; membrane fraction
T1 sequence (P49146 1-381): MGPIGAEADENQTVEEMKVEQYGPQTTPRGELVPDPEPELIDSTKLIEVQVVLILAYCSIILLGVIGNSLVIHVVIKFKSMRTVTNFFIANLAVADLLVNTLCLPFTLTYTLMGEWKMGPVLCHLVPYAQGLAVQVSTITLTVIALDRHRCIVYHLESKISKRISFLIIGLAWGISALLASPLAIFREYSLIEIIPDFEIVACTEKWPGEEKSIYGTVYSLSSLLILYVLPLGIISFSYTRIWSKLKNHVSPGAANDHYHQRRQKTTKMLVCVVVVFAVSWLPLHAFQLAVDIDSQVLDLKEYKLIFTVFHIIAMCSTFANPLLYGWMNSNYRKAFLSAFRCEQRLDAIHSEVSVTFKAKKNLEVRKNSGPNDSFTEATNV
How it was run: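 Read-out is [125I]-PYY displacement from membranes of CHO/dhfr− cells stably transfected with human Y2R. Membranes were obtained by disrupting cells in a buffer of 10 mM NaHCO3, 5 mM EDTA and protease inhibitors.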

[2] = biological target: T1, human Y2 receptor; test: Human Y2 Receptor G Protein Binding Assay (GBA), [35S]GTPγS; type: biochemical; details: EC50 of test compound/EC50 of PYY(3-36) (PYY3-36 taken as 1), hY2R/CHO membrane fraction
How it was run: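 Agonism measured as [35S]GTPγS binding, read by GF/C filtration and scintillation counting after 120 min at room temperature, using human Y2 membranes at 1 μg protein/mL in pH 7.4 Tris/MgCl2/NaCl/GDP buffer. Compound serially diluted 100 μM–1 nM; EC50 normalized to PYY(3-36) (ratio = compound/PYY).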

Substance: Ac-[D-Pro24, Cha27,28,36, Dab30, Aib31]-PYY(23-36) (Ac-S[dP]RH[Cha][Cha]N[Dab][Aib]TRQR[Cha]-NH2; SMILES CC(=O)N[C@@H](CO)C(=O)N1CCC[C@@H]1C(=O)N[C@@H](CCCNC(=N)N)C(=O)N[C@@H](Cc1c[nH]cn1)C(=O)N[C@@H](CC1CCCCC1)C(=O)N[C@@H](CC1CCCCC1)C(=O)N[C@@H](CC(N)=O)C(=O)N[C@@H](CCN)C(=O)NC(C)(C)C(=O)N[C@H](C(=O)N[C@@H](CCCNC(=N)N)C(=O)N[C@@H](CCC(N)=O)C(=O)N[C@@H](CCCNC(=N)N)C(=O)N[C@@H](CC1CCCCC1)C(N)=O)[C@@H](C)O) [compound No. 165]
RBA IC50 Ratio [1]: 2.6
GBA EC50 Ratio [2]: 1.6

Substance: Isobutanoyl-[Abu26, Cha27,28,36, Gln30, Aib31]-PYY(25-36) (Isobutyryl-R[Abu][Cha][Cha]NQ[Aib]TRQR[Cha]-NH2; SMILES CC[C@H](NC(=O)[C@H](CCCNC(=N)N)NC(=O)C(C)C)C(=O)N[C@@H](CC1CCCCC1)C(=O)N[C@@H](CC1CCCCC1)C(=O)N[C@@H](CC(N)=O)C(=O)N[C@@H](CCC(N)=O)C(=O)NC(C)(C)C(=O)N[C@H](C(=O)N[C@@H](CCCNC(=N)N)C(=O)N[C@@H](CCC(N)=O)C(=O)N[C@@H](CCCNC(=N)N)C(=O)N[C@@H](CC1CCCCC1)C(N)=O)[C@@H](C)O) [compound No. 90]
RBA IC50 Ratio [1]: 19
GBA EC50 Ratio [2]: 22

Substance: Ac-[D-MeAla24, Cha27,28,36, Aib31]-PYY(23-36) (Ac-S[dNMeA]RH[Cha][Cha]NL[Aib]TRQR[Cha]-NH2; SMILES CC(=O)N[C@@H](CO)C(=O)N(C)[C@H](C)C(=O)N[C@@H](CCCNC(=N)N)C(=O)N[C@@H](Cc1c[nH]cn1)C(=O)N[C@@H](CC1CCCCC1)C(=O)N[C@@H](CC1CCCCC1)C(=O)N[C@@H](CC(N)=O)C(=O)N[C@@H](CC(C)C)C(=O)NC(C)(C)C(=O)N[C@H](C(=O)N[C@@H](CCCNC(=N)N)C(=O)N[C@@H](CCC(N)=O)C(=O)N[C@@H](CCCNC(=N)N)C(=O)N[C@@H](CC1CCCCC1)C(N)=O)[C@@H](C)O) [compound No. 110]
RBA IC50 Ratio [1]: 3.4
GBA EC50 Ratio [2]: 2.2

Substance: Ac-[D-Pro24, Har25, Cha27,36, Aib28,31, Lys30]-PYY(23-36) (Ac-S[dP][hArg]H[Cha][Aib]NK[Aib]TRQR[Cha]-NH2; SMILES CC(=O)N[C@@H](CO)C(=O)N1CCC[C@@H]1C(=O)N[C@@H](CCCCNC(=N)N)C(=O)N[C@@H](Cc1c[nH]cn1)C(=O)N[C@@H](CC1CCCCC1)C(=O)NC(C)(C)C(=O)N[C@@H](CC(N)=O)C(=O)N[C@@H](CCCCN)C(=O)NC(C)(C)C(=O)N[C@H](C(=O)N[C@@H](CCCNC(=N)N)C(=O)N[C@@H](CCC(N)=O)C(=O)N[C@@H](CCCNC(=N)N)C(=O)N[C@@H](CC1CCCCC1)C(N)=O)[C@@H](C)O) [compound No. 291]
RBA IC50 Ratio [1]: 1.2
GBA EC50 Ratio [2]: 2.7

Substance: Ac-[D-Pro24, D-Iva26, Cha27,28,36, Aib31]-PYY(23-36) (Ac-S[dP]R[dIva][Cha][Cha]NL[Aib]TRQR[Cha]-NH2; SMILES CC[C@@](C)(NC(=O)[C@H](CCCNC(=N)N)NC(=O)[C@H]1CCCN1C(=O)[C@H](CO)NC(C)=O)C(=O)N[C@@H](CC1CCCCC1)C(=O)N[C@@H](CC1CCCCC1)C(=O)N[C@@H](CC(N)=O)C(=O)N[C@@H](CC(C)C)C(=O)NC(C)(C)C(=O)N[C@H](C(=O)N[C@@H](CCCNC(=N)N)C(=O)N[C@@H](CCC(N)=O)C(=O)N[C@@H](CCCNC(=N)N)C(=O)N[C@@H](CC1CCCCC1)C(N)=O)[C@@H](C)O) [compound No. 181]
RBA IC50 Ratio [1]: 19
GBA EC50 Ratio [2]: 13

Substance: Ac-[Aad23, D-Pro24, Cha27,28,36, Aib31]-PYY(23-36) (Ac-[Aad][dP]RH[Cha][Cha]NL[Aib]TRQR[Cha]-NH2; SMILES CC(=O)N[C@@H](CCCC(=O)O)C(=O)N1CCC[C@@H]1C(=O)N[C@@H](CCCNC(=N)N)C(=O)N[C@@H](Cc1c[nH]cn1)C(=O)N[C@@H](CC1CCCCC1)C(=O)N[C@@H](CC1CCCCC1)C(=O)N[C@@H](CC(N)=O)C(=O)N[C@@H](CC(C)C)C(=O)NC(C)(C)C(=O)N[C@H](C(=O)N[C@@H](CCCNC(=N)N)C(=O)N[C@@H](CCC(N)=O)C(=O)N[C@@H](CCCNC(=N)N)C(=O)N[C@@H](CC1CCCCC1)C(N)=O)[C@@H](C)O) [compound No. 159]
RBA IC50 Ratio [1]: 2.8
GBA EC50 Ratio [2]: 1.2

Substance: Isobutanoyl-[Abu26, Cha27,28,36, Gly(cPr)31]-PYY(25-36) (Isobutyryl-R[Abu][Cha][Cha]NL[Gly(cPr)]TRQR[Cha]-NH2; SMILES CC[C@H](NC(=O)[C@H](CCCNC(=N)N)NC(=O)C(C)C)C(=O)N[C@@H](CC1CCCCC1)C(=O)N[C@@H](CC1CCCCC1)C(=O)N[C@@H](CC(N)=O)C(=O)N[C@@H](CC(C)C)C(=O)N[C@H](C(=O)N[C@H](C(=O)N[C@@H](CCCNC(=N)N)C(=O)N[C@@H](CCC(N)=O)C(=O)N[C@@H](CCCNC(=N)N)C(=O)N[C@@H](CC1CCCCC1)C(N)=O)[C@@H](C)O)C1CC1) [compound No. 88]
RBA IC50 Ratio [1]: 25
GBA EC50 Ratio [2]: 16

Substance: Benzoyl-[Cha27,36, Ile28, Pya(4)31]-PYY(25-36) (Bz-RH[Cha]INL[4Pal]TRQR[Cha]-NH2; SMILES CC[C@H](C)[C@H](NC(=O)[C@H](CC1CCCCC1)NC(=O)[C@H](Cc1c[nH]cn1)NC(=O)[C@H](CCCNC(=N)N)NC(=O)c1ccccc1)C(=O)N[C@@H](CC(N)=O)C(=O)N[C@@H](CC(C)C)C(=O)N[C@@H](Cc1ccncc1)C(=O)N[C@H](C(=O)N[C@@H](CCCNC(=N)N)C(=O)N[C@@H](CCC(N)=O)C(=O)N[C@@H](CCCNC(=N)N)C(=O)N[C@@H](CC1CCCCC1)C(N)=O)[C@@H](C)O) [compound No. 71]
RBA IC50 Ratio [1]: 7.6
GBA EC50 Ratio [2]: 8.5

Substance: Cyclohexanecarbonyl-[Cha27,36, Ala(cPr)28, Aib31]-PYY(25-36) (Cyclohexanecarbonyl-RH[Cha][Ala(cPr)]NL[Aib]TRQR[Cha]-NH2; SMILES CC(C)C[C@H](NC(=O)[C@H](CC(N)=O)NC(=O)[C@H](CC1CC1)NC(=O)[C@H](CC1CCCCC1)NC(=O)[C@H](Cc1c[nH]cn1)NC(=O)[C@H](CCCNC(=N)N)NC(=O)C1CCCCC1)C(=O)NC(C)(C)C(=O)N[C@H](C(=O)N[C@@H](CCCNC(=N)N)C(=O)N[C@@H](CCC(N)=O)C(=O)N[C@@H](CCCNC(=N)N)C(=O)N[C@@H](CC1CCCCC1)C(N)=O)[C@@H](C)O) [compound No. 78]
RBA IC50 Ratio [1]: 15
GBA EC50 Ratio [2]: 23

Next, values leading:

RBA IC50 Ratio [1]: 0.97
GBA EC50 Ratio [2]: 1.1
Substance: Ac-[D-Pro24, Pya(4)26, Cha27,36, Aib28,31, Lys(Ac)30]-PYY(23-36) [compound No. 278]

RBA IC50 Ratio [1]: 1.7
GBA EC50 Ratio [2]: 2.6
Substance: Ac-[D-Pro24, Pya(4)26, Cha27,36, D-Iva28, Lys30, Aib31]-PYY(23-36) (Ac-S[dP]R[4Pal][Cha][dIva]NK[Aib]TRQR[Cha]-NH2; SMILES CC[C@@](C)(NC(=O)[C@H](CC1CCCCC1)NC(=O)[C@H](Cc1ccncc1)NC(=O)[C@H](CCCNC(=N)N)NC(=O)[C@H]1CCCN1C(=O)[C@H](CO)NC(C)=O)C(=O)N[C@@H](CC(N)=O)C(=O)N[C@@H](CCCCN)C(=O)NC(C)(C)C(=O)N[C@H](C(=O)N[C@@H](CCCNC(=N)N)C(=O)N[C@@H](CCC(N)=O)C(=O)N[C@@H](CCCNC(=N)N)C(=O)N[C@@H](CC1CCCCC1)C(N)=O)[C@@H](C)O) [compound No. 234]

RBA IC50 Ratio [1]: 12
GBA EC50 Ratio [2]: 5.9
Substance: Ac-[Phe23, D-Pro24, Abu26, Cha27,28,36, Aib31]-PYY(23-36) (Ac-F[dP]R[Abu][Cha][Cha]NL[Aib]TRQR[Cha]-NH2; SMILES CC[C@H](NC(=O)[C@H](CCCNC(=N)N)NC(=O)[C@H]1CCCN1C(=O)[C@H](Cc1ccccc1)NC(C)=O)C(=O)N[C@@H](CC1CCCCC1)C(=O)N[C@@H](CC1CCCCC1)C(=O)N[C@@H](CC(N)=O)C(=O)N[C@@H](CC(C)C)C(=O)NC(C)(C)C(=O)N[C@H](C(=O)N[C@@H](CCCNC(=N)N)C(=O)N[C@@H](CCC(N)=O)C(=O)N[C@@H](CCCNC(=N)N)C(=O)N[C@@H](CC1CCCCC1)C(N)=O)[C@@H](C)O) [compound No. 107]

RBA IC50 Ratio [1]: 1.9
GBA EC50 Ratio [2]: 1.8
Substance: 4-Pyridinecarbonyl-[Glu23, D-Pro24, Pya(4)26, Cha27,36, Aib28,31, Lys30]-PYY(23-36) (Isonicotinoyl-E[dP]R[4Pal][Cha][Aib]NK[Aib]TRQR[Cha]-NH2; SMILES C[C@@H](O)[C@H](NC(=O)C(C)(C)NC(=O)[C@H](CCCCN)NC(=O)[C@H](CC(N)=O)NC(=O)C(C)(C)NC(=O)[C@H](CC1CCCCC1)NC(=O)[C@H](Cc1ccncc1)NC(=O)[C@H](CCCNC(=N)N)NC(=O)[C@H]1CCCN1C(=O)[C@H](CCC(=O)O)NC(=O)c1ccncc1)C(=O)N[C@@H](CCCNC(=N)N)C(=O)N[C@@H](CCC(N)=O)C(=O)N[C@@H](CCCNC(=N)N)C(=O)N[C@@H](CC1CCCCC1)C(N)=O) [compound No. 215]
